Assay results taken from paper PMC12661439.
Blank lines part the entries; values can stand above or below the substance they belong to.

Assays:
[1] = target: HaloTag-bZip-VfAuLOV: VfAuLOV with the basic residues and leucine zipper domain of Vaucheria frigida Aureochrome1, fused to HaloTag (Vaucheria frigida); assay: photon counting histogram (PCH) analysis (fluorescence fluctuation spectroscopy); light state: the same living HEK293T cells measured at once after 5 min of blue light (about 6 mW/cm^2 at the sample plane, 450-490 nm), one 30 s measurement a cell; HaloTag-JF646 fusions; brightness relative to the monomeric standard, corrected for 70% labelling; oligomer percent from a monomer-dimer (VfAuLOV) or monomer-tetramer (AtCRY2) model
[2] = target: HaloTag-bZip-VfAuLOV: VfAuLOV with the basic residues and leucine zipper domain of Vaucheria frigida Aureochrome1, fused to HaloTag (Vaucheria frigida); assay: photon counting histogram (PCH) analysis (fluorescence fluctuation spectroscopy); dark state; HaloTag fusions labelled with 200 nM JF646 in living HEK293T cells, UBC promoter, protomer about 50-1,700 nM; single-point measurement of 30 s, 20 kHz binning, 15 ns dead time, ambient temperature (22-23°C); brightness relative to the monomeric HaloTag standard and corrected for 70% labelling; population average; oligomer percent from a monomer-dimer (VfAuLOV) or monomer-tetramer (AtCRY2) model
[3] = target: HaloTag-bZip-VfAuLOV: VfAuLOV with the basic residues and leucine zipper domain of Vaucheria frigida Aureochrome1, fused to HaloTag (Vaucheria frigida); assay: photon counting histogram (PCH) analysis (fluorescence fluctuation spectroscopy); dissociation kinetics in living HEK293T cells: relative brightness measured at times after a 5-min exposure to blue light was turned off, each measurement 30 s; averaged curves fitted with a single-exponential decay; half-life = ln2 x lifetime
[4] = target: HaloTag-AtCRY2(D387A) (Arabidopsis thaliana); assay: photon counting histogram (PCH) analysis (fluorescence fluctuation spectroscopy); light state: the same living HEK293T cells measured at once after 5 min of blue light (about 6 mW/cm^2 at the sample plane, 450-490 nm), one 30 s measurement a cell; HaloTag-JF646 fusions; brightness relative to the monomeric standard, corrected for 70% labelling; oligomer percent from a monomer-dimer (VfAuLOV) or monomer-tetramer (AtCRY2) model
[5] = target: HaloTag-AtCRY2(D387A) (Arabidopsis thaliana); assay: photon counting histogram (PCH) analysis (fluorescence fluctuation spectroscopy); dark state; HaloTag fusions labelled with 200 nM JF646 in living HEK293T cells, UBC promoter, protomer about 50-1,700 nM; single-point measurement of 30 s, 20 kHz binning, 15 ns dead time, ambient temperature (22-23°C); brightness relative to the monomeric HaloTag standard and corrected for 70% labelling; population average; oligomer percent from a monomer-dimer (VfAuLOV) or monomer-tetramer (AtCRY2) model
[6] = target: HaloTag-AtCRY2(W374A) (Arabidopsis thaliana); assay: photon counting histogram (PCH) analysis (fluorescence fluctuation spectroscopy); light state: the same living HEK293T cells measured at once after 5 min of blue light (about 6 mW/cm^2 at the sample plane, 450-490 nm), one 30 s measurement a cell; HaloTag-JF646 fusions; brightness relative to the monomeric standard, corrected for 70% labelling; oligomer percent from a monomer-dimer (VfAuLOV) or monomer-tetramer (AtCRY2) model
[7] = target: HaloTag-AtCRY2(W374A) (Arabidopsis thaliana); assay: photon counting histogram (PCH) analysis (fluorescence fluctuation spectroscopy); dark state; HaloTag fusions labelled with 200 nM JF646 in living HEK293T cells, UBC promoter, protomer about 50-1,700 nM; single-point measurement of 30 s, 20 kHz binning, 15 ns dead time, ambient temperature (22-23°C); brightness relative to the monomeric HaloTag standard and corrected for 70% labelling; population average; oligomer percent from a monomer-dimer (VfAuLOV) or monomer-tetramer (AtCRY2) model
[8] = target: HaloTag-AtCRY2: photolyase homology region of cryptochrome 2 from Arabidopsis thaliana fused to HaloTag (Arabidopsis thaliana); assay: photon counting histogram (PCH) analysis (fluorescence fluctuation spectroscopy); light state: the same living HEK293T cells measured at once after 5 min of blue light (about 6 mW/cm^2 at the sample plane, 450-490 nm), one 30 s measurement a cell; HaloTag-JF646 fusions; brightness relative to the monomeric standard, corrected for 70% labelling; oligomer percent from a monomer-dimer (VfAuLOV) or monomer-tetramer (AtCRY2) model
[9] = target: HaloTag-AtCRY2: photolyase homology region of cryptochrome 2 from Arabidopsis thaliana fused to HaloTag (Arabidopsis thaliana); assay: photon counting histogram (PCH) analysis (fluorescence fluctuation spectroscopy); dark state; HaloTag fusions labelled with 200 nM JF646 in living HEK293T cells, UBC promoter, protomer about 50-1,700 nM; single-point measurement of 30 s, 20 kHz binning, 15 ns dead time, ambient temperature (22-23°C); brightness relative to the monomeric HaloTag standard and corrected for 70% labelling; population average; oligomer percent from a monomer-dimer (VfAuLOV) or monomer-tetramer (AtCRY2) model
[10] = target: HaloTag-AtCRY2: photolyase homology region of cryptochrome 2 from Arabidopsis thaliana fused to HaloTag (Arabidopsis thaliana); assay: photon counting histogram (PCH) analysis (fluorescence fluctuation spectroscopy); dissociation kinetics in living HEK293T cells: relative brightness measured at times after a 5-min exposure to blue light was turned off, each measurement 30 s; averaged curves fitted with a single-exponential decay; half-life = ln2 x lifetime
[11] = target: HaloTag-VfAuLOV: light-oxygen-voltage (LOV) domain of Vaucheria frigida Aurochrome1 fused to HaloTag (Vaucheria frigida); assay: photon counting histogram (PCH) analysis (fluorescence fluctuation spectroscopy); light state: the same living HEK293T cells measured at once after 5 min of blue light (about 6 mW/cm^2 at the sample plane, 450-490 nm), one 30 s measurement a cell; HaloTag-JF646 fusions; brightness relative to the monomeric standard, corrected for 70% labelling; oligomer percent from a monomer-dimer (VfAuLOV) or monomer-tetramer (AtCRY2) model
[12] = target: HaloTag-VfAuLOV: light-oxygen-voltage (LOV) domain of Vaucheria frigida Aurochrome1 fused to HaloTag (Vaucheria frigida); assay: photon counting histogram (PCH) analysis (fluorescence fluctuation spectroscopy); dark state; HaloTag fusions labelled with 200 nM JF646 in living HEK293T cells, UBC promoter, protomer about 50-1,700 nM; single-point measurement of 30 s, 20 kHz binning, 15 ns dead time, ambient temperature (22-23°C); brightness relative to the monomeric HaloTag standard and corrected for 70% labelling; population average; oligomer percent from a monomer-dimer (VfAuLOV) or monomer-tetramer (AtCRY2) model
[13] = target: HaloTag-VfAuLOV: light-oxygen-voltage (LOV) domain of Vaucheria frigida Aurochrome1 fused to HaloTag (Vaucheria frigida); assay: photon counting histogram (PCH) analysis (fluorescence fluctuation spectroscopy); dissociation kinetics in living HEK293T cells: relative brightness measured at times after a 5-min exposure to blue light was turned off, each measurement 30 s; averaged curves fitted with a single-exponential decay; half-life = ln2 x lifetime
[14] = target: HaloTag-HsCRY2: human CRY2 photolyase homology region fused to HaloTag (human); assay: photon counting histogram (PCH) analysis (fluorescence fluctuation spectroscopy); light state: the same living HEK293T cells measured at once after 5 min of blue light (about 6 mW/cm^2 at the sample plane, 450-490 nm), one 30 s measurement a cell; HaloTag-JF646 fusions; brightness relative to the monomeric standard, corrected for 70% labelling; oligomer percent from a monomer-dimer (VfAuLOV) or monomer-tetramer (AtCRY2) model
[15] = target: HaloTag-HsCRY2: human CRY2 photolyase homology region fused to HaloTag (human); assay: photon counting histogram (PCH) analysis (fluorescence fluctuation spectroscopy); dark state; HaloTag fusions labelled with 200 nM JF646 in living HEK293T cells, UBC promoter, protomer about 50-1,700 nM; single-point measurement of 30 s, 20 kHz binning, 15 ns dead time, ambient temperature (22-23°C); brightness relative to the monomeric HaloTag standard and corrected for 70% labelling; population average; oligomer percent from a monomer-dimer (VfAuLOV) or monomer-tetramer (AtCRY2) model
[16] = target: HaloTag-AtCRY2(R439L) (Arabidopsis thaliana); assay: photon counting histogram (PCH) analysis (fluorescence fluctuation spectroscopy); light state: the same living HEK293T cells measured at once after 5 min of blue light (about 6 mW/cm^2 at the sample plane, 450-490 nm), one 30 s measurement a cell; HaloTag-JF646 fusions; brightness relative to the monomeric standard, corrected for 70% labelling; oligomer percent from a monomer-dimer (VfAuLOV) or monomer-tetramer (AtCRY2) model
[17] = target: HaloTag-AtCRY2(R439L) (Arabidopsis thaliana); assay: photon counting histogram (PCH) analysis (fluorescence fluctuation spectroscopy); dark state; HaloTag fusions labelled with 200 nM JF646 in living HEK293T cells, UBC promoter, protomer about 50-1,700 nM; single-point measurement of 30 s, 20 kHz binning, 15 ns dead time, ambient temperature (22-23°C); brightness relative to the monomeric HaloTag standard and corrected for 70% labelling; population average; oligomer percent from a monomer-dimer (VfAuLOV) or monomer-tetramer (AtCRY2) model

oligomer percentage (tetramer fraction, monomer-tetramer model) [6]: 20%
relative brightness (corrected; monomer = 1, tetramer = 4) [6]: 2.5
oligomer percentage (tetramer fraction, monomer-tetramer model) [7]: 5%
relative brightness (corrected; monomer = 1, tetramer = 4) [7]: 1.5
Substance: HaloTag-AtCRY2(W374A) (domain or fragment)

relative brightness (corrected; monomer = 1) [14]: 1.3
relative brightness (corrected; monomer = 1) [15]: 1.2
Substance: HaloTag-HsCRY2: human CRY2 photolyase homology region fused to HaloTag (domain or fragment)

oligomer percentage (tetramer fraction, monomer-tetramer model) [16]: < 1%
relative brightness (corrected; monomer = 1, tetramer = 4) [16]: 1.1
oligomer percentage (tetramer fraction, monomer-tetramer model) [17]: < 1%
relative brightness (corrected; monomer = 1, tetramer = 4) [17]: 1.1
Substance: HaloTag-AtCRY2(R439L) (domain or fragment)

The next lines start with the substance.

Substance: HaloTag-bZip-VfAuLOV: VfAuLOV with the basic residues and leucine zipper domain of Vaucheria frigida Aureochrome1, fused to HaloTag (domain or fragment)
oligomer percentage (dimer fraction, monomer-dimer model) [1]: 67%
relative brightness (corrected; monomer = 1, dimer = 2) [1]: 1.8
stoichiometry N [1]: 2
oligomer percentage (dimer fraction, monomer-dimer model) [2]: 33%
relative brightness (corrected; monomer = 1, dimer = 2) [2]: 1.5
dissociation half-life [3]: 6.89 min

Substance: HaloTag-AtCRY2(D387A) (domain or fragment)
oligomer percentage (tetramer fraction, monomer-tetramer model) [4]: < 1%
relative brightness (corrected; monomer = 1, tetramer = 4) [4]: 1.1
oligomer percentage (tetramer fraction, monomer-tetramer model) [5]: < 1%
relative brightness (corrected; monomer = 1, tetramer = 4) [5]: 1.1

Substance: HaloTag-AtCRY2: photolyase homology region of cryptochrome 2 from Arabidopsis thaliana fused to HaloTag (domain or fragment)
oligomer percentage (tetramer fraction, monomer-tetramer model) [8]: 27%
relative brightness (corrected; monomer = 1, tetramer = 4) [8]: 2.8
stoichiometry N [8]: 4
oligomer percentage (tetramer fraction, monomer-tetramer model) [9]: < 1%
oligomer percentage (tetramer fraction, monomer-tetramer model; only data above 500 nM) [9]: 1.8%
relative brightness (corrected; monomer = 1, tetramer = 4) [9]: 1.1
relative brightness (corrected; only data above 500 nM) [9]: 1.2
dissociation half-life [10]: 4.29 min

Substance: HaloTag-VfAuLOV: light-oxygen-voltage (LOV) domain of Vaucheria frigida Aurochrome1 fused to HaloTag (domain or fragment)
oligomer percentage (dimer fraction, monomer-dimer model) [11]: 100%
relative brightness (corrected; monomer = 1, dimer = 2) [11]: 2
stoichiometry N [11]: 2
oligomer percentage (dimer fraction, monomer-dimer model) [12]: 18%
relative brightness (corrected; monomer = 1, dimer = 2) [12]: 1.3
dissociation half-life [13]: 8.73 min
